Positions count from the first letter of the chain named. Names and notes keep the numbering of the source.
T1: FcγRIIA^131H (human, UniProt P12318 34-217, biotin-labeled)
T1 construct: extracellular domain; Bought protein; also called RIIAH
T1 sequence (looked up): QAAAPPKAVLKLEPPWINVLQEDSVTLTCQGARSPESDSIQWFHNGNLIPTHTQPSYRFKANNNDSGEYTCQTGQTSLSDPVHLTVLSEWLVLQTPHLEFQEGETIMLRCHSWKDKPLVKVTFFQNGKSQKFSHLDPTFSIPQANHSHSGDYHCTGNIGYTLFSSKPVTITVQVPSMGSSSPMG

T2: FcγRIIA^131R (human, UniProt P12318 34-217, biotin-labeled)
T2 construct: extracellular domain; Bought protein; also called RIIAR
T2 sequence (looked up): T1 sequence (looked up) with H134R

T3: FcγRIIB (human, UniProt P31994 43-217, biotin-labeled)
T3 construct: extracellular domain; Bought protein; also called CD32b
T3 sequence (looked up): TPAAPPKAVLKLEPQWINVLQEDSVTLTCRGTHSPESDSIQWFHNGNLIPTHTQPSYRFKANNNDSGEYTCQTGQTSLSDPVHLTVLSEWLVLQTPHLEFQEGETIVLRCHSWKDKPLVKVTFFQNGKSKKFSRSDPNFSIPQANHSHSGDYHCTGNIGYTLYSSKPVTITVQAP

B1: anti-human OX40 IgG2 antibody Mut_6 (V234Q/A235G/P238L/S239V/H268D/G327A/L328E/A330S/I332T) (antibody)
heavy: QVQLQESGPGLVKPSGTLSLTCAVSGGSISSSIWWSWVRQPPGKGLEWIGEIHHSGNTNCNPSLKSRVTISIDKSKNQFSLKLTSVTAADTAVYYCARAGTGTTLDYWGQGTLVTVSSASTKGPSVFPLAPCSRSTSESTAALGCLVKDYFPEPVTVSWNSGALTSGVHTFPAVLQSSGLYSLSSVVTVPSSNFGTQTYTCNVDHKPSNTKVDKTVERKCCVECPPCPAPPQGGLVVFLFPPKPKDTLMISRTPEVTCVVVDVSDEDPEVQFNWYVDGVEVHNAKTKPREEQFNSTFRVVSVLTVVHQDWLNGKEYKCKVSNKAEPSPTEKTISKTKGQPREPQVYTLPPSREEMTKNQVSLTCLVKGFYPSDIAVEWESNGQPENNYKTTPPMLDSDGSFFLYSKLTVDKSRWQQGNVFSCSVMHEALHNHYTQKSLSLSPGK
light: EIVLTQSPGTLSLSPGERATLSCRASQSVSGDYLAWYQQKLGQAPRLLIYGASIRATGIPDRFSGSGSGTDFTLTISKLEPEDFAVYYCQQYGSSPLTFGGGTKVEIKRTVAAPSVFIFPPSDEQLKSGTASVVCLLNNFYPREAKVQWKVDNALQSGNSQESVTEQDSKDSTYSLSSTLTLSKADYEKHKVYACEVTHQGLSSPVTKSFNRGEC
notes: entries include an unstated signal peptide
B2: anti-human OX40 IgG2 antibody Mut_16 (S267E/S298G) (antibody, name in EU numbering)
heavy: QVQLQESGPGLVKPSGTLSLTCAVSGGSISSSIWWSWVRQPPGKGLEWIGEIHHSGNTNCNPSLKSRVTISIDKSKNQFSLKLTSVTAADTAVYYCARAGTGTTLDYWGQGTLVTVSSASTKGPSVFPLAPCSRSTSESTAALGCLVKDYFPEPVTVSWNSGALTSGVHTFPAVLQSSGLYSLSSVVTVPSSNFGTQTYTCNVDHKPSNTKVDKTVERKCCVECPPCPAPPVAGPSVFLFPPKPKDTLMISRTPEVTCVVVDVEHEDPEVQFNWYVDGVEVHNAKTKPREEQFNGTFRVVSVLTVVHQDWLNGKEYKCKVSNKGLPAPIEKTISKTKGQPREPQVYTLPPSREEMTKNQVSLTCLVKGFYPSDIAVEWESNGQPENNYKTTPPMLDSDGSFFLYSKLTVDKSRWQQGNVFSCSVMHEALHNHYTQKSLSLSPGK
light: B1 light
notes: Substitutions in Eu numbering; entries include an unstated signal peptide
B3: anti-human OX40 IgG2 antibody Mut_9 (V266L/S267D/H268D/E269D/P271Q) (antibody, name in EU numbering)
heavy: B2 heavy with V263L, E264D, H265D, E266D, P268Q, G295S
light: B1 light
notes: as for B2
B4: anti-human OX40 IgG2 antibody Mut_11 (S267E/A330S) (antibody, name in EU numbering)
heavy: B2 heavy with G295S, A327S
light: B1 light
notes: as for B2
B5: anti-human OX40 IgG2 antibody Mut_14 (V234M/S267E/S298G/I332L) (antibody)
heavy: B2 heavy with V232M, I329L
light: B1 light
notes: as for B2
B6: anti-human OX40 IgG2 antibody Mut_13 (V266L/S298L/L328W) (antibody, name in EU numbering)
heavy: B2 heavy with V263L, E264S, G295L, L325W
light: B1 light
notes: as for B2
B7: anti-human OX40 IgG2 antibody Mut_7 (S239V/V266L/S298L/L328W) (antibody, name in EU numbering)
heavy: B2 heavy with S236V, V263L, E264S, G295L, L325W
light: B1 light
notes: as for B2
B8: anti-human OX40 IgG2 antibody Mut_10 (S267E/H268S/E269D) (antibody, name in EU numbering)
heavy: B2 heavy with H265S, E266D, G295S
light: B1 light
notes: as for B2
B9: anti-human OX40 IgG2 antibody Mut_12 (P233F/V266L/S298L/L328W) (antibody)
heavy: B2 heavy with P231F, V263L, E264S, G295L, L325W
light: B1 light
notes: as for B2
B10: anti-human OX40 IgG2 antibody Mut_15 (V234Q/A235G/P238L/S239V/G327A/L328E/A330S/I332T) (antibody)
heavy: B1 heavy with D265H
light: B1 light
notes: as for B2

molecular target: T4, FcγRI (human, UniProt P12314 16-292, biotin-labeled); assay: ELISA, coated antibody, biotin-FcγR;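 as to Absorbance value: antibody coated at 2 µg/mL at 100 µL per well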
T4 construct: extracellular domain; Bought protein; also called CD64
T4 sequence (P12314 16-292): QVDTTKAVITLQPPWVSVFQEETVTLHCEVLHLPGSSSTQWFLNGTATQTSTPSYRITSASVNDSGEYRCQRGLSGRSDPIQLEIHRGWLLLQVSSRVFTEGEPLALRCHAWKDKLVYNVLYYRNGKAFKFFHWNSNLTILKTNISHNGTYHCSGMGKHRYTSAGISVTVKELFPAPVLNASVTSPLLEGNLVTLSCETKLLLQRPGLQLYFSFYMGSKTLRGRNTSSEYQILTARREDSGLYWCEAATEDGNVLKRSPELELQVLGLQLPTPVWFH
Experimental: (§1) One hundred μl (2 μg/mL) of antibody or mutant thereof were added to the enzyme-linked plate to be coated overnight, then the supernatant was discarded. The plate was blocked with PBS containing 1% BSA for 2 hours, and washed with PBST (PBS containing 0.05% Tween 20). Biotin-labeled FcγR extracellular domain protein (Beijing Sino Biological Co., Ltd) of appropriate concentration was added and incubated at room temperature for 1 hour, then the supernatant was discarded and the plate was washed with PBST. The Biotin-labeled protein was detected by incubating with Streptavidin-HRP (BD BioSciences) at room temperature for 1 hour. The supernatant was removed, and the color-developing solution was added for color development for 20-40 minutes to determine the absorbance of 650 nm (A650).
(§2) Anti-human OX40 antibodies containing these new Fc mutation combinations are expressed and the binding property of the mutant antibody to FcγR are analyzed by Enzyme-linked immunosorbent assay (ELISA).

| Absorbance value | Relative binding affinity RI/G1 | Binder |
| --- | --- | --- |
| 0.09 A650 | 0.03 ratio | B1 |
| 0.1 A650 | 0.04 ratio | B2 |
| 0.12 A650 | 0.05 ratio | B3 |
| 0.13 A650 | 0.05 ratio | B4 |
| 0.12 A650 | 0.04 ratio | B5 |
| 0.18 A650 | 0.07 ratio | B6 |
| 0.13 A650 | 0.05 ratio | B7 |
| 0.18 A650 | 0.07 ratio | B8 |
| 0.21 A650 | 0.08 ratio | B9 |
| 0.08 A650 | 0.03 ratio | B10 |

molecular target: T1, FcγRIIA^131H; assay: ELISA, coated antibody, biotin-FcγR;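 as to Absorbance value: antibody coated at 2 µg/mL at 100 µL per well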
Experimental: as §1, §2

| Absorbance value | Relative binding affinity RIIAH/G1 | Binder |
| --- | --- | --- |
| 0.05 A650 | 0.08 ratio | B1 |
| 0.39 A650 | 0.68 ratio | B2 |
| 0.2 A650 | 0.34 ratio | B3 |
| 0.55 A650 | 0.96 ratio | B4 |
| 0.12 A650 | 0.21 ratio | B5 |
| 0.33 A650 | 0.58 ratio | B6 |
| 0.38 A650 | 0.67 ratio | B7 |
| 0.58 A650 | 1.02 ratio | B8 |
| 0.39 A650 | 0.68 ratio | B9 |
| 0.04 A650 | 0.07 ratio | B10 |

molecular target: T2, FcγRIIA^131R; assay: ELISA, coated antibody, biotin-FcγR;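 as to Absorbance value: antibody coated at 2 µg/mL at 100 µL per well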
Experimental: as §1, §2

| Absorbance value | Relative binding affinity RIIAR/G1 | Binder |
| --- | --- | --- |
| 0.05 A650 | 0.19 ratio | B1 |
| 0.5 A650 | 1.92 ratio | B2 |
| 0.74 A650 | 2.83 ratio | B3 |
| 0.36 A650 | 1.36 ratio | B4 |
| 0.32 A650 | 1.22 ratio | B5 |
| 0.26 A650 | 1.01 ratio | B6 |
| 0.23 A650 | 0.87 ratio | B7 |
| 0.43 A650 | 1.64 ratio | B8 |
| 0.33 A650 | 1.26 ratio | B9 |
| 0.04 A650 | 0.17 ratio | B10 |

molecular target: T3, FcγRIIB; assay: ELISA, coated antibody, biotin-FcγR;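 as to Absorbance value: antibody coated at 2 µg/mL at 100 µL per well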
Experimental: as §1, §2

| Absorbance value | Increased factor of RIIB binding compared with wild-type IgG2 | Relative binding affinity RIIB/G1 | Binder |
| --- | --- | --- | --- |
| 0.5 A650 | 6.63 fold | 0.66 ratio | B1 |
| 1.09 A650 | 14.5 fold | 1.44 ratio | B2 |
| 1.2 A650 | 16 fold | 1.59 ratio | B3 |
| 1.01 A650 | 13.4 fold | 1.33 ratio | B4 |
| 0.7 A650 | 9.36 fold | 0.93 ratio | B5 |
| 0.73 A650 | 9.75 fold | 0.97 ratio | B6 |
| 0.58 A650 | 7.7 fold | 0.76 ratio | B7 |
| 1.05 A650 | 14.1 fold | 1.4 ratio | B8 |
| 0.94 A650 | 12.6 fold | 1.25 ratio | B9 |
| 0.47 A650 | 6.21 fold | 0.62 ratio | B10 |

molecular target: T5, FcγRIIIA^158F (human, UniProt P08637 17-208, biotin-labeled); assay: ELISA, coated antibody, biotin-FcγR;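 as to Absorbance value: antibody coated at 2 µg/mL at 100 µL per well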
T5 construct: extracellular domain; Bought protein; also called RIIIAF
T5 sequence (P08637 17-208): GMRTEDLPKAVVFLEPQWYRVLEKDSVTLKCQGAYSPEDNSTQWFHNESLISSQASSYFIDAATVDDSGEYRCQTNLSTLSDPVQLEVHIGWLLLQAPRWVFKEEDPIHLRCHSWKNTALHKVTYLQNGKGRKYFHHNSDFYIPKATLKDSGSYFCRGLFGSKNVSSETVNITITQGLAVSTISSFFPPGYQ
Experimental: as §1, §2

| Absorbance value | Relative binding affinity RIIIAF/G1 | Binder |
| --- | --- | --- |
| 0.06 A650 | 0.3 ratio | B1 |
| 0.06 A650 | 0.32 ratio | B2 |
| 0.07 A650 | 0.38 ratio | B3 |
| 0.08 A650 | 0.41 ratio | B4 |
| 0.06 A650 | 0.31 ratio | B5 |
| 0.07 A650 | 0.37 ratio | B6 |
| 0.07 A650 | 0.38 ratio | B7 |
| 0.09 A650 | 0.48 ratio | B8 |
| 0.06 A650 | 0.32 ratio | B9 |
| 0.06 A650 | 0.31 ratio | B10 |

molecular target: T6, FcγRIIIA^158V (human, UniProt P08637 17-208, biotin-labeled); assay: ELISA, coated antibody, biotin-FcγR;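 as to Absorbance value: antibody coated at 2 µg/mL at 100 µL per well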
T6 construct: extracellular domain; Bought protein; also called RIIIAV; CD16a 158V
T6 sequence (P08637 17-208 F176V): as the sequence (P08637 17-208) above, with F160V counted along it
Experimental: as §1, §2

| Absorbance value | Relative binding affinity RIIIAV/G1 | Binder |
| --- | --- | --- |
| 0.06 A650 | 0.06 ratio | B1 |
| 0.06 A650 | 0.06 ratio | B2 |
| 0.07 A650 | 0.08 ratio | B3 |
| 0.08 A650 | 0.08 ratio | B4 |
| 0.05 A650 | 0.06 ratio | B5 |
| 0.08 A650 | 0.09 ratio | B6 |
| 0.06 A650 | 0.07 ratio | B7 |
| 0.09 A650 | 0.09 ratio | B8 |
| 0.06 A650 | 0.06 ratio | B9 |
| 0.05 A650 | 0.06 ratio | B10 |

molecular target: T3, FcγRIIB; assay: ELISA; relative affinity to FcγRIIB over that to FcγRIIA131R
Experimental: as §1, §2

| RIIB/RIIAR | Binder |
| --- | --- |
| 3.52 ratio | B1 |
| 0.75 ratio | B2 |
| 0.56 ratio | B3 |
| 0.98 ratio | B4 |
| 0.76 ratio | B5 |
| 0.96 ratio | B6 |
| 0.88 ratio | B7 |
| 0.85 ratio | B8 |
| 0.99 ratio | B9 |
| 3.67 ratio | B10 |

Reference: patent US20230220042A1 (SHANGHAI JIAO TONG UNIVERSITY SCHOOL OF MEDICINE, published 2023)
